Measurements published in US20220323583A1, “Pharmaceutical Formulations of Bi-Specific Diabodies and Use of the Same” (MacroGenics, Inc., priority 2019, published 2022).

Experiments:
[1] = biological target: Cynomolgus CD3ε/δ (cynomolgus monkey) (UniProt Q95LI5); assay: kinetic binding measurement, method not stated
[2] = biological target: Human CD3ε/δ (human) (UniProt P07766); assay: kinetic binding measurement, method not stated
Human CD3ε/δ (human), sequence (P07766 23-126, stated change not applied, chain 1 of 2): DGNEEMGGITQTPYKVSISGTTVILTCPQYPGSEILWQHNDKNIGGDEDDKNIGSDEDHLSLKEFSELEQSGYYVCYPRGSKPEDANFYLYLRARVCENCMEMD
Human CD3ε/δ (human), sequence (P04234 22-105, stated change not applied, chain 2 of 2, further chain): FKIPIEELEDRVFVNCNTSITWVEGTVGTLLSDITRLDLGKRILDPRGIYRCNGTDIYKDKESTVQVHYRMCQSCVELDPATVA

Kd [1]: 9.2 nM
koff [1]: 0.005 s⁻¹
kon [1]: 550000 M⁻¹ s⁻¹
Kd [2]: 9 nM
koff [2]: 0.005 s⁻¹
kon [2]: 570000 M⁻¹ s⁻¹
B1: DART-A, sequence-optimized CD123×CD3 bispecific diabody (bispecific antibody)
chain 1: QAVVTQEPSLTVSPGGTVTLTCRSSTGAVTTSNYANWVQQKPGQAPRGLIGGTNKRAPWTPARFSGSLLGGKAALTITGAQAEDEADYYCALWYSNLWVFGGGTKLTVLGGGGSGGGGEVQLVQSGAELKKPGASVKVSCKASGYTFTDYYMKWVRQAPGQGLEWIGDIIPSNGATFYNQKFKGRVTITVDKSTSTAYMELSSLRSEDTAVYYCARSHLLRASWFAYWGQGTLVTVSSGGCGGGEVAALEKEVAALEKEVAALEKEVAALEK
chain 2: DFVMTQSPDSLAVSLGERVTMSCKSSQSLLNSGNQKNYLTWYQQKPGQPPKLLIYWASTRESGVPDRFSGSGSGTDFTLTISSLQAEDVAVYYCQNDYSYPYTFGQGTKLEIKGGGSGGGGEVQLVESGGGLVQPGGSLRLSCAASGFTFSTYAMNWVRQAPGKGLEWVGRIRSKYNNYATYYADSVKDRFTISRDDSKNSLYLQMNSLKTEDTAVYYCVRHGNFGNSYVSWFAYWGQGTLVTVSSGGCGGGKVAALKEKVAALKEKVAALKEKVAALKE
